Columns and labels:
Experiment in all cases: cell_activity
[1] = system: TetR-FFF (tTA2) (/ HSV fusion); conditions: relative to tTA; -Tc 259556, +Tc 33
[2] = system: TetR-FG (tTA7) (/ HSV fusion); conditions: relative to tTA; -Tc 88, +Tc 24
[3] = system: TetR-FF (tTA3) (/ HSV fusion); conditions: relative to tTA; -Tc 102828, +Tc 27
[4] = system: TetR-FFFF (tTA1) (/ HSV fusion); conditions: relative to tTA; -Tc 607264, +Tc 33
[5] = system: TetR-GF (tTA6) (/ HSV fusion); conditions: relative to tTA; -Tc 1500, +Tc 28
[6] = system: TetR-FGY (tTA5) (/ HSV fusion); conditions: relative to tTA; -Tc 12080, +Tc 16
[7] = system: TetR-VP16 (tTA) (/ HSV fusion); conditions: luciferase -Tc 265410, +Tc 20
[8] = system: TetR-GFY (tTA4) (/ HSV fusion); conditions: relative to tTA; -Tc 37217, +Tc 25

PhCMV*-1 promoter (tet operators, luciferase reporter in HeLa X1/6)
activity [1]: 98%
activity [2]: 0.03%
activity [3]: 39%
activity [4]: 230%
activity [5]: 0.6%
activity [6]: 4.6%
activity [7]: 100%
activity [8]: 14%

From patent US6087166
